Positions count from the first letter of the chain named. In names and notes the source's numbering stands.
T1: mouse 129 SIRP-α D1 domain (mouse (129 strain), UniProt P97797 32-150)
T1 construct: also called m129
T1 chain: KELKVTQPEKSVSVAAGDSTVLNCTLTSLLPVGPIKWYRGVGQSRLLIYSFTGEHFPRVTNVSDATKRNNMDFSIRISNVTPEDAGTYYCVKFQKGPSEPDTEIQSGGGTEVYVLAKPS

T2: C57BL/6 mouse SIRP-α D1 domain (mouse (C57BL/6 strain), UniProt P97797 32-148)
T2 sequence: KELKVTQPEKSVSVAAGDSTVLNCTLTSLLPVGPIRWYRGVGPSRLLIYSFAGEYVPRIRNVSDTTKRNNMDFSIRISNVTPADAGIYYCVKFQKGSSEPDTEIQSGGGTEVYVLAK

T3: cynomolgus SIRP-α D1 domain (SEQ ID NO:11) (cynomolgus, UniProt Q5TFQ8 30-148 (human entry), limits assumed)
T3 construct: also called cyno1
T3 chain: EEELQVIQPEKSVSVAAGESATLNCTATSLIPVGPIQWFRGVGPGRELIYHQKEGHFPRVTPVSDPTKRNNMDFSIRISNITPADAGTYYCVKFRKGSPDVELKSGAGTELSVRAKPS

T4: high affinity SIRP-α D1 variant CV1-3
T4 chain: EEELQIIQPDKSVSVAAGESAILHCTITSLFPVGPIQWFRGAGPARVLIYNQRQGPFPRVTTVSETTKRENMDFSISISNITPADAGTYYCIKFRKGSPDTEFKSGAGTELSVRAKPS

T5: cynomolgus SIRP-α D1 domain (cyno2) (cynomolgus monkey, UniProt Q5TFQ8 30-148 (human entry), limits assumed)
T5 chain: T3 chain with E19D, A27V, T28S, V42A, H51N, Q52L, P62A

B1: S163 (scFv, V domains shown)
VH: DVQLVESGGGLVRPGESLRLSCAASGFTFTNYAVTWVRQAPGEGLEWVSLISVTGTTYYADSVKGRFTISRDNSKSTLYLQMNGLRAEDTAVYYCAKVTWKNVFDYWGLGTLVTVSS
VL: EIVLTQSPGTLSVSPGERATFSCRASQTVGSKLAWYQQKPGQAPRLLIYDANTRATGIPARFSGSGSGTEFTLTISSLQSEDFAVYYCQQHTDWPPYTFGGGTKVEIK
B2: S162 (scFv, V domains shown)
VH: B1 VH with G84S
VL: B1 VL
B3: S164 (scFv, V domains shown)
VH: B1 VH
VL: B1 VL with G66R
B4: antibody 119 variant mut/wt (VL mut all / VH wt) (antibody, human IgG1, V domains shown)
VH: DVQLLESGGGVVQPGGSLRLSCAASGFSFSNFAMTWVRQAPGEGLEWVSTIGSGDTYYADSVKGRFTISRDNSKNTLYLQMNSLRAEDTAVYYCAKDSTVSWSGDFFDYWGLGTLVTVSS
VL: EIVLTQSPATLSVSPGERATLSCRASQNVKNDLAWYQQKPGQAPRLLIYAARIRETGIPARFSGSGSGTEFTLTISSLQSEDFAVYYCQQYYDWPPFTFGGGTKVEIK
notes: Human IgG1 with L234A/L235A/G237A/N297A; Labels are in the order VL/VH
B5: AB119 Wt/wt with hIgG4 (antibody, V domains shown)
VH: B4 VH
VL: B4 VL with L21F, K39R, A60E, S76T
notes: Human IgG4 Fc region with S228P (EU numbering); only variable domains tied to the clone

Target: T1, mouse 129 SIRP-α D1 domain
Experiment: SPR
How it was run: (§1)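 Pre-filtered culture media supplied the scFv-Fc antibody clones, which were captured by anti-human IgG Fc amine-coupled (about 4000 RU) to a GLC chip on a ProteOn XPR36. SIRP analytes were flowed in PBS pH 7.4 with 0.01% Tween-20 at 25° C. Interspot and buffer-blank responses were subtracted from the data, which were then fitted to a 1:1 Langmuir model. Dissociation rate constants (koff) were derived from this fitting.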

Binder	binding result
B1	no binding (tested: Koff > 5 × 10^3 (legend))
B2	no binding (tested: Koff > 5 × 10^3 (legend))
B3	no binding (tested: Koff > 5 × 10^3 (legend))

These binders were tested against T2, C57BL/6 mouse SIRP-α D1 domain (assay: SPR).
How it was run: as §1

Binder	binding result
B1	no binding (tested: Koff > 5 × 10^3 (legend))
B2	no binding (tested: Koff > 5 × 10^3 (legend))
B3	no binding (tested: Koff > 5 × 10^3 (legend))

Target: T3, cynomolgus SIRP-α D1 domain (SEQ ID …)
Experiment: SPR, antibody immobilised on GLC chip
Protocol: (§2) All experiments were performed at 25° C. using a SPR-based ProteOn XPR36 biosensor (BioRad, Inc, Hercules, Calif.) equipped with GLC or NLC sensor chips. […] Purification was carried out by standard Protein A affinity column chromatography and eluted antibodies were stored in PBS buffer.
(§3) For the method using GLC chip, the analytes were injected and flowed over anti-SIRPα antibodies immobilized (˜1000 RUs) on GLC chips using Proteon™ Amine Coupling Kit. For the immobilization step, GLC chip was activated with EDAC/Sulpho-NHS 1:1 (Biorad) diluted 1/100 for 300 s at 25 μL/min. Anti-SIRPα antibodies were diluted to 80 nM concentration in 10 mM sodium acetate buffer pH 4.5 and immobilized to the chip at 30 μL/min for 50 s. Chip was inactivated with ethanolamine for 300 s at 25 μL/min. The analytes (e.g., SIRP-α from different species, SIRP-β, SIRP-γ) were injected in a “one-shot” kinetic mode at nominal concentrations of 100, 33, 11, 3.7, 1.2 and 0 nM. Association times were monitored for 90 s at 100 μL/min, and dissociation times were monitored for 1200 s. The surfaces were regenerated with a 2:1 v/v blend of Pierce IgG elution buffer/4M NaCl.

Binder	Kd [nM]
B4	0.138
B5	0.116

The binders below were run against T6, human SIRP-α v1 D1 domain (human, UniProt P78324 31-149) (assay: SPR, antibody immobilised on GLC chip).
T6 construct: also called human v1; human α v1
Protocol: as §2, §3
T6 sequence (P78324 31-149 limits assumed): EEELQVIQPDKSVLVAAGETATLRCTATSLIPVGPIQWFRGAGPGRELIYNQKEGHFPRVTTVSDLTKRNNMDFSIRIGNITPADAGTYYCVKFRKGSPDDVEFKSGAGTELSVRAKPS

Binder	Kd [nM]
B4	0.214
B5	0.174

These binders were tested against T7, human SIRP-α v2 D1 domain (human) (assay: SPR, antibody immobilised on GLC chip).
T7 construct: also called human v2; human α v2
Protocol: as §2, §3
T7 sequence (chain, as listed by the source limits assumed): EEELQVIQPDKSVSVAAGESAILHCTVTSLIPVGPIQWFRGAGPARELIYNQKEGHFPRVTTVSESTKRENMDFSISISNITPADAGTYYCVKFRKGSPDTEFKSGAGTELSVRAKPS

Binder	Kd [nM]
B4	0.0864
B5	0.0598

Target: T4, high affinity SIRP-α D1 variant CV1-3
Experiment: SPR, Langmuir fit
How it was run: as §1

Binder	koff [s⁻¹]
B1	0.00174
B2	0.00152
B3	0.00134

Each binder was assayed against T8, human SIRPβ isoform 1 (human, UniProt O00241 30-148) (assay: SPR, Langmuir fit).
T8 construct: also called SIRPb; sirpb1
How it was run: as §1

T8 sequence (O00241 30-148 limits assumed): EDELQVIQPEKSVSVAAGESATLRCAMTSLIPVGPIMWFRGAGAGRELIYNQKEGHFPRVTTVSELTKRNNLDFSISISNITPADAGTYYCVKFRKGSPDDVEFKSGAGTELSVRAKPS

Binder	koff [s⁻¹]
B1	0.0017
B3	0.00167

Each binder was assayed against T9, human SIRP-α v2 D1 domain (human) (assay: SPR, Langmuir fit).
T9 construct: also called human v2
How it was run: as §1
T9 sequence (chain, as listed by the source limits assumed): as the sequence (chain, as listed by the source limits assumed) above

Binder	koff [s⁻¹]
B1	0.00664
B3	0.00989

Each binder was assayed against T10, human SIRP-α v1 D1 domain (human, UniProt P78324 31-149) (assay: SPR, Langmuir fit).
T10 construct: also called human v1
How it was run: as §1
T10 sequence (P78324 31-149 limits assumed): as the sequence (P78324 31-149 limits assumed) above

Binder	koff [s⁻¹]
B1	0.000535
B3	0.000595

These binders were tested against T11, human SIRPγ isoform 1 (human, UniProt Q9P1W8 29-147) (assay: SPR, Langmuir fit).
T11 construct: also called SIRPg; sirpg
How it was run: as §1

T11 sequence (Q9P1W8 29-147 limits assumed): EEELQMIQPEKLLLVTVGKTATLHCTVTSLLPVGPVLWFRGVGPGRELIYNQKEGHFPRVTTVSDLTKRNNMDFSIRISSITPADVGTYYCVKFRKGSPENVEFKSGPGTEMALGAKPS

Binder	koff [s⁻¹]
B1	0.00315
B3	0.00426

Target: T5, cynomolgus SIRP-α D1 domain (cyno2)
Experiment: SPR, Langmuir fit
How it was run: as §1

Binder	koff [s⁻¹]
B1	0.000242
B2	0.000318
B3	0.000408

Source: patent US20210363269A1 (ALX ONCOLOGY, published 2021)
